The values that follow come from the supplement of paper PMC10567573.

First the molecules themselves.
B1: IKZF1 (parent)
chain: HIKLHSGEKPFKCHLCNYACRRRD
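Also: lentivirally expressed fusions sorted by FACS into six bins by GFP to DsRed ratio, PSI derived from sequencing read proportions per bin multiplied by bin number.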

In this data set the parent is B1. Nature of the data set: protein stability index of a GFP-peptide fusion (GPS, HEK-293T) (PSI 1-6); higher = more stable. Particulars: c terminus: a fixed tail appended.
In the case of HIKLHSGEKLFKCHLCNYACRRRD [P10L], the protein stability index is 1.76.
In the case of HIKLHSGEKHFKCHLCNYACRRRD [P10H] it was 1.67; in that of HIKLHSGEKNFKCHLCNYACRRRD [P10N], 2.16.
In the case of HIKLHSGEKMFKCHLCNYACRRRD [P10M] it was 1.58; in that of HIKLHSGEKDFKCHLCNYACRRRD [P10D], 2.14; in that of HIKLHSGEKVFKCHLCNYACRRRD [P10V], 2.26.
As for HIKLHSGEKKFKCHLCNYACRRRD [P10K], the figure is 2.73.
HIKLHSGEKYFKCHLCNYACRRRD [P10Y]: the protein stability index worked out at 2.88.
In the case of HIKLHSGEKSFKCHLCNYACRRRD [P10S], the protein stability index was determined as 1.75.
As for HIKLHSGEKGFKCHLCNYACRRRD [P10G], the protein stability index came out at 1.93.
Take HIKLHSGEKTFKCHLCNYACRRRD [P10T]: the protein stability index came to 1.84.
As for HIKLHSGEKIFKCHLCNYACRRRD [P10I], the figure is 2.19; as for HIKLHSGEKEFKCHLCNYACRRRD [P10E], 1.07.
For the variant HIKLHSGEKFFKCHLCNYACRRRD [P10F], the protein stability index was determined as 1.91.
In the case of HIKLHSGEKQFKCHLCNYACRRRD [P10Q] it was 1.43; in that of HIKLHSGEKWFKCHLCNYACRRRD [P10W], 2.31.
In the case of HIKLHSGEKAFKCHLCNYACRRRD [P10A] it was 1.55.
Take HIKLHSGEKCFKCHLCNYACRRRD [P10C]: the protein stability index was determined as 1.76.
Take HIKLHSGEKRFKCHLCNYACRRRD [P10R]: the protein stability index was 1.74.
HIKSHSGEKPFKCHLCNYACRRRD [L4S]: the protein stability index came to 2.84.
Take HIKNHSGEKPFKCHLCNYACRRRD [L4N]: the protein stability index stood at 1.87.
As for HIKRHSGEKPFKCHLCNYACRRRD [L4R], the figure is 2.48; as for HIKGHSGEKPFKCHLCNYACRRRD [L4G], 2.21.
In the case of HIKFHSGEKPFKCHLCNYACRRRD [L4F], the protein stability index is 1.92.
HIKPHSGEKPFKCHLCNYACRRRD [L4P]: the protein stability index was 2.19.
As for HIKYHSGEKPFKCHLCNYACRRRD [L4Y], the figure is 2.52; as for HIKEHSGEKPFKCHLCNYACRRRD [L4E], 3.72.
In the case of HIKVHSGEKPFKCHLCNYACRRRD [L4V] it was 1.31; in that of HIKIHSGEKPFKCHLCNYACRRRD [L4I], 1.72.
For HIKTHSGEKPFKCHLCNYACRRRD [L4T], the protein stability index was determined as 1.63.
In the case of HIKCHSGEKPFKCHLCNYACRRRD [L4C] it was 2.33; in that of HIKHHSGEKPFKCHLCNYACRRRD [L4H], 4.08.
On to HIKQHSGEKPFKCHLCNYACRRRD [L4Q], for which the protein stability index amounted to 4.68.
HIKDHSGEKPFKCHLCNYACRRRD [L4D]: the protein stability index is 2.4.
In the case of HIKMHSGEKPFKCHLCNYACRRRD [L4M], the protein stability index was 1.58.
As for HIKAHSGEKPFKCHLCNYACRRRD [L4A], the figure is 1.99; as for HIKKHSGEKPFKCHLCNYACRRRD [L4K], 4.07.
In the case of DIKLHSGEKPFKCHLCNYACRRRD [H1D] it was 1.59; in that of IIKLHSGEKPFKCHLCNYACRRRD [H1I], 1.5; in that of FIKLHSGEKPFKCHLCNYACRRRD [H1F], 2.4.
In the case of WIKLHSGEKPFKCHLCNYACRRRD [H1W] it was 1.93; in that of MIKLHSGEKPFKCHLCNYACRRRD [H1M], 1.81.
With QIKLHSGEKPFKCHLCNYACRRRD [H1Q], the protein stability index was 1.26.
As for GIKLHSGEKPFKCHLCNYACRRRD [H1G], the figure is 2; as for KIKLHSGEKPFKCHLCNYACRRRD [H1K], 2.09; as for PIKLHSGEKPFKCHLCNYACRRRD [H1P], 2.3.
Take AIKLHSGEKPFKCHLCNYACRRRD [H1A]: the protein stability index was found to be 1.05.
As for TIKLHSGEKPFKCHLCNYACRRRD [H1T], the figure is 1.17; as for NIKLHSGEKPFKCHLCNYACRRRD [H1N], 2.73.
As for VIKLHSGEKPFKCHLCNYACRRRD [H1V], the figure is 1.72.
Regarding LIKLHSGEKPFKCHLCNYACRRRD [H1L], the protein stability index is 2.04.
In the case of YIKLHSGEKPFKCHLCNYACRRRD [H1Y] it was 1.95; in that of RIKLHSGEKPFKCHLCNYACRRRD [H1R], 2.13; in that of CIKLHSGEKPFKCHLCNYACRRRD [H1C], 1.83.
In the case of EIKLHSGEKPFKCHLCNYACRRRD [H1E] it was 2.21; in that of HIKLHSGEKPAKCHLCNYACRRRD [F11A], 2.75.
HIYLHSGEKPFKCHLCNYACRRRD [K3Y]: the protein stability index turned out to be 1.69.
In the case of HIVLHSGEKPFKCHLCNYACRRRD [K3V] it was 1.83; in that of HIRLHSGEKPFKCHLCNYACRRRD [K3R], 1.88; in that of HITLHSGEKPFKCHLCNYACRRRD [K3T], 1.9.
As for HIWLHSGEKPFKCHLCNYACRRRD [K3W], the figure is 2.73.
As for HIPLHSGEKPFKCHLCNYACRRRD [K3P], the figure is 3.67.
In the case of HIFLHSGEKPFKCHLCNYACRRRD [K3F], the protein stability index came out at 2.38.
On to HIILHSGEKPFKCHLCNYACRRRD [K3I], for which the protein stability index was 1.61.
In the case of HILLHSGEKPFKCHLCNYACRRRD [K3L] it was 1.99; in that of HICLHSGEKPFKCHLCNYACRRRD [K3C], 2.56; in that of HINLHSGEKPFKCHLCNYACRRRD [K3N], 2.11.
In the case of HIGLHSGEKPFKCHLCNYACRRRD [K3G] it was 2.38; in that of HIALHSGEKPFKCHLCNYACRRRD [K3A], 1.58; in that of HIHLHSGEKPFKCHLCNYACRRRD [K3H], 2.44.
As for HIQLHSGEKPFKCHLCNYACRRRD [K3Q], the figure is 2.03; as for HIDLHSGEKPFKCHLCNYACRRRD [K3D], 1.95; as for HIELHSGEKPFKCHLCNYACRRRD [K3E], 1.8.
On to HISLHSGEKPFKCHLCNYACRRRD [K3S], for which the protein stability index was 1.91.
Turning to HIMLHSGEKPFKCHLCNYACRRRD [K3M], the protein stability index stood at 1.51.
Turning to HIKLHRGEKPFKCHLCNYACRRRD [S6R], the protein stability index came to 2.24.
As for HIKLHKGEKPFKCHLCNYACRRRD [S6K], the figure is 1.82; as for HIKLHPGEKPFKCHLCNYACRRRD [S6P], 2.02; as for HIKLHIGEKPFKCHLCNYACRRRD [S6I], 2.38.
As for HIKLHTGEKPFKCHLCNYACRRRD [S6T], the figure is 1.99; as for HIKLHCGEKPFKCHLCNYACRRRD [S6C], 1.51; as for HIKLHAGEKPFKCHLCNYACRRRD [S6A], 1.65.
As to HIKLHMGEKPFKCHLCNYACRRRD [S6M], the protein stability index worked out at 2.13.
As for HIKLHEGEKPFKCHLCNYACRRRD [S6E], the figure is 3.3; as for HIKLHNGEKPFKCHLCNYACRRRD [S6N], 3.35.
As for HIKLHQGEKPFKCHLCNYACRRRD [S6Q], the protein stability index is 1.88.
For HIKLHYGEKPFKCHLCNYACRRRD [S6Y], the protein stability index turned out to be 1.79.
In the case of HIKLHVGEKPFKCHLCNYACRRRD [S6V] it was 1.16; in that of HIKLHFGEKPFKCHLCNYACRRRD [S6F], 2.19.
In the case of HIKLHHGEKPFKCHLCNYACRRRD [S6H] it was 1.96.
In the case of HIKLHDGEKPFKCHLCNYACRRRD [S6D] it was 1.97.
With HIKLHGGEKPFKCHLCNYACRRRD [S6G], the protein stability index stood at 2.02.
In the case of HIKLHLGEKPFKCHLCNYACRRRD [S6L] it was 1.93; in that of HIKLHWGEKPFKCHLCNYACRRRD [S6W], 2.93.
